What was measured:
[1] = system: PsdR-P (phosphorylated with ammonium phosphoramidate) (Lacticaseibacillus paracasei BL23); experiment: BLI; conditions: BLI (BLITz, streptavidin sensors, DNA immobilized): 50 mM Tris-HCl pH 7.4, 150 mM NaCl, 0.1% Tween 20; protein preincubated 30 min with 50 mM phosphodonor and …
[2] = system: ApsR-P (phosphorylated with acetyl-phosphate) (Lacticaseibacillus paracasei BL23); experiment: BLI; conditions: BLI (BLITz, streptavidin sensors, DNA immobilized): 50 mM Tris-HCl pH 7.4, 150 mM NaCl, 0.1% Tween 20; protein preincubated 30 min with 50 mM phosphodonor and …

Sequence	Kd [1] [µM]	Kd [2] [µM]
CAATCATCTCGCAAACTTACATCACCTTACAAAAAGGTCAGAAAGGGTGCGAGGGGCTTGTAGATTTCCTATAATGAATAGGAATATAGACACGGAGGAC (double strand) [PmprF]	0.0948	26.6
GGTAAAGAAAGACTAAAGCAGCTTACAAAGCCGTAAGTTACAAACAACCATCCGTTAGGCCATTATCAGGAAAAAGGCAGCCTAACCCGCTATCATAAAG (double strand) [PderA]	0.172	4.74
GTAAGCTACCTTACCAGCTTGTAAGCAACTACGAATCACTGTAAGTAGGCATGGGGCATCATCCCCGCTAAGCTAATAAATGAAAGGGGACGATCACATG (double strand) [PpsdA]	0.116	108
TCACGCTTCTCATATTACGAAACTGTTAGCTCATTGTTACGCAATTCGTTGGCGTCATTTTTTCTGAAAACCTATAATGAATGTGTAAATAAAAACGTGG (double strand) [Pdlt]	0.1	7.47

Reference: PMC10858260
